What all share (assay): purified protein
Assay type in all cases: biochemical, Dehalococcoides mccartyi

Substrate in series [1]: NC(=O)c1ccc[n+]([C@@H]2O[C@H](COP(=O)(O)OP(=O)(O)OC[C@H]3O[C@@H](n4cnc5c(N)ncnc54)[C@H](OP(=O)(O)O)[C@@H]3O)[C@@H](O)[C@H]2O)c1
The settings on record: D-isocitric acid as co-substrate (1 mM in standard assay), 10 mM MgCl2, 50 mM Tris-HCl pH 7.5 (standard assay; kinetics at selected pH), 30 °C, varied: cofactor.

Substrate in series [2]: O=C(O)C[C@H](C(=O)O)[C@@H](O)C(=O)O
Particulars: 0.3 mM NADP+, 10 mM MgCl2, 50 mM Tris-HCl pH 7.5 (standard assay; kinetics at selected pH), 30 °C.

Substrate in series [3]: NC(=O)c1ccc[n+]([C@@H]2O[C@H](COP(=O)(O)OP(=O)(O)OC[C@H]3O[C@@H](n4cnc5c(N)ncnc54)[C@H](O)[C@@H]3O)[C@@H](O)[C@H]2O)c1
Particulars: D-isocitric acid as co-substrate (1 mM in standard assay), 10 mM MgCl2, 50 mM Tris-HCl pH 7.5 (standard assay; kinetics at selected pH), 30 °C, varied: cofactor.

B1: DmIDH (KB1_0495) (Dehalococcoides mccartyi CBDB1) (protein)
chain: MYHNVTLIPGDGIGPEISEATRRVLEATGVKFNWEVVNAGADVVAEYGTPLPDMVLESIRKNKVAIKGPVTTPVGSGFRSVNVGMRKALNLYTCLRPCKTYPGVPSRYDNVDIVIVRENMEDLYAGIEFEKGSAEALRLIEFIKENKKVEIRTDSGISIKPISVFGTERIFRWAFKYAKDNNRKKVTAVHKANIMKYSDGLFLAVGRKVAEEYPEIEFEDRIVDNMTMQLVKTPTQFDILVCPNLYGDILSDLCAGLVGGLGVAPGANIGDEYALFEPTHGSAPKYKGLNKVNPMAMMLSGVLMLRYLKEEKAADKLENAIAAVIAEGKSVTYDMLSPDKQAVAVGTSQVADAIIAKMK
notes: recombinant, N-terminal 6xHis tag with TEV site (modified pET-15b), E. coli BL21(DE3), Ni-NTA and gel filtration
In general, Km refers to the substrate concentration at which the rate is half of its maximum. As usually defined, the Vmax is the top rate of the reaction or transport when substrate is in excess. The term kcat denotes the number of substrate molecules converted per active site and unit of time at saturation. A word on the kcat/Km: it is the turnover number divided by the Michaelis constant. B1: in “purified protein [1]”, the Km was determined as 27 ± 20 µM, the Vmax is 20.8 µmol/min/mg, the kcat was found to be 14.6 ± 1 s⁻¹ and the kcat/Km turned out to be 540000 ± 1000 M⁻¹ s⁻¹. Also, in “purified protein [2]”, the Km is 110 ± 10 µM, the Vmax is 21.3 µmol/min/mg, the kcat worked out at 15 ± 1 s⁻¹ and the kcat/Km stood at 139600 ± 1000 M⁻¹ s⁻¹. Also, in “purified protein [3]”, the Km is 120 ± 40 µM, the Vmax amounted to 0.32 µmol/min/mg, the kcat worked out at 0.22 ± 0.03 s⁻¹ and the kcat/Km is 2000 ± 1000 M⁻¹ s⁻¹.

The record behind these values is article PMC4720418, “Experimental validation of in silico model‐predicted isocitrate dehydrogenase and phosphomannose isomerase from D ehalococcoides mccartyi” (Microbial Biotechnology, 2015).
